In US20120237442A1:

Target: CH1-AD1-Fab-h679
Test: equilibrium gel filtration analysis of the binary complex (DDD1 dimer docking to AD1); complex also seen by SE-HPLC

Chain of CH1-AD1-Fab-h679 (heavy, as listed by the source): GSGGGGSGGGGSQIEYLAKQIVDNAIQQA

Kd: 8 nM
Substance: CH1-DDD1-Fab-hMN-14
